Assay results taken from US20190225703A1 (INNATE PHARMA, published 2019).

T1: human CD73 (ecto-5'-nucleotidase) expressed at the cell surface (human, UniProt P21589 27-549)
T1 construct: Used for huCD73-expressing recombinant cell lines, MDA-MB-231 cells (endogenous CD73), HEK-293T cells with wild type CD73, and primary T and B cells; also called huCD73; wild type CD73
T1 sequence: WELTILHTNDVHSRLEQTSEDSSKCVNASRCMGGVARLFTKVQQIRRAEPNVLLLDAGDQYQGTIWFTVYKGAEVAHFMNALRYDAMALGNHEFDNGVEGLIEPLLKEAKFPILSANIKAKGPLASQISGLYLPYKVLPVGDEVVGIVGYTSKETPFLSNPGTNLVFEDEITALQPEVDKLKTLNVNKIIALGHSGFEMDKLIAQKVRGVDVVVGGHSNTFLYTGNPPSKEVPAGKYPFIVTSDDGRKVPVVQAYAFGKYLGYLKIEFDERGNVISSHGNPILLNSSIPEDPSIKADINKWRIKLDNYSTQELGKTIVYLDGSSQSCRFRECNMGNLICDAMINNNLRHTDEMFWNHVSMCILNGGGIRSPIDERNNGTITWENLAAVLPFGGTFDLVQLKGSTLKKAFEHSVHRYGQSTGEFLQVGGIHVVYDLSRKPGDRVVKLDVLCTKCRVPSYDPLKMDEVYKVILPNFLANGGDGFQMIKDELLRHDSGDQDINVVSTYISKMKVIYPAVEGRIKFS

T2: human CD73 mutant 3 (human, UniProt P21589 27-549)
T2 construct: Transfected in HEK-293T cells
T2 chain: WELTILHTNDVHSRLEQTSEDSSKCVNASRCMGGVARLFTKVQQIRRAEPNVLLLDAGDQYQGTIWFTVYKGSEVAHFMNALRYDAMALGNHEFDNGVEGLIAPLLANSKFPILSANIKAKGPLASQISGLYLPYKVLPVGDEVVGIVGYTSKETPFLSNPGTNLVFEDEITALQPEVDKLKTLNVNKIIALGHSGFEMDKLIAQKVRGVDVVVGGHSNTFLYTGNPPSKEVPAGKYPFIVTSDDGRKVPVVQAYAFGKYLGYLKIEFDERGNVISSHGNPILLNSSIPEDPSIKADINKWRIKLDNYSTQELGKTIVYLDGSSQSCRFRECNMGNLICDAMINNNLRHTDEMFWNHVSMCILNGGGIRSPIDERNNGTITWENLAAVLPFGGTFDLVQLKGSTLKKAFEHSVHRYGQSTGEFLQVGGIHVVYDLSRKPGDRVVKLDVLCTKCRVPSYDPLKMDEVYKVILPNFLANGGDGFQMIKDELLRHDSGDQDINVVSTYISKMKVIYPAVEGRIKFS

T3: human CD73 mutant 4 (human, UniProt P21589 27-549)
T3 construct: Transfected in HEK-293T cells
T3 chain: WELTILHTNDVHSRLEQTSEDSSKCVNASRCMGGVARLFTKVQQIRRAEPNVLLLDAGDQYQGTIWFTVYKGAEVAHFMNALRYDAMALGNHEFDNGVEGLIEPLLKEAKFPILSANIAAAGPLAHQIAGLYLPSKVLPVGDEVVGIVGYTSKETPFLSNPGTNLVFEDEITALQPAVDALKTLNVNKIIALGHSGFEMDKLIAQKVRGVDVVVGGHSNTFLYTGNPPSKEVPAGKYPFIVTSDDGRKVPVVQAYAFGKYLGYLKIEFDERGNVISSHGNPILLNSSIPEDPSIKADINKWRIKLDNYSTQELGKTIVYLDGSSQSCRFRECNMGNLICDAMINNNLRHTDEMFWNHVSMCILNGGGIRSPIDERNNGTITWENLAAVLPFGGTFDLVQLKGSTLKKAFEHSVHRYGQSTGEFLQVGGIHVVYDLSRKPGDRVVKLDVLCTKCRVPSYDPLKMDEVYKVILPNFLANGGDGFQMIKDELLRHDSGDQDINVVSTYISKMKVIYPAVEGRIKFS

T4: human CD73 mutant 5 (human, UniProt P21589 27-549)
T4 construct: Transfected in HEK-293T cells
T4 chain: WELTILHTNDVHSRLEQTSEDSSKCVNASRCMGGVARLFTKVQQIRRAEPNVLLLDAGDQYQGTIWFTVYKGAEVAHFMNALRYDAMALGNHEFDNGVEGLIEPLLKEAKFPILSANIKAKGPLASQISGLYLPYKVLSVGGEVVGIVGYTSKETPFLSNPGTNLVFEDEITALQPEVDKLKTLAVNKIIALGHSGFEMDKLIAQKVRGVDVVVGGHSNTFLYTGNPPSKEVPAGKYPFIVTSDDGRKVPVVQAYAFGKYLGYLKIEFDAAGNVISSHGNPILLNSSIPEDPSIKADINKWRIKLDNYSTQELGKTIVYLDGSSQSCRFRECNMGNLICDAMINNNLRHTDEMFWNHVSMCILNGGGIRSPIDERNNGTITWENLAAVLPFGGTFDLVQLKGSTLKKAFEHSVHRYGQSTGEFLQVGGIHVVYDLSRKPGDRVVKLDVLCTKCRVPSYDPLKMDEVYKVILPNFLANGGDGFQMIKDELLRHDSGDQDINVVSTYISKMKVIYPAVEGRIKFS

T5: mouse CD73 expressed at the cell surface (mouse, UniProt Q61503 29-551)
T5 construct: whole, on cells; Recombinant cell line expressing mouse CD73; also called moCD73
T5 sequence (looked up): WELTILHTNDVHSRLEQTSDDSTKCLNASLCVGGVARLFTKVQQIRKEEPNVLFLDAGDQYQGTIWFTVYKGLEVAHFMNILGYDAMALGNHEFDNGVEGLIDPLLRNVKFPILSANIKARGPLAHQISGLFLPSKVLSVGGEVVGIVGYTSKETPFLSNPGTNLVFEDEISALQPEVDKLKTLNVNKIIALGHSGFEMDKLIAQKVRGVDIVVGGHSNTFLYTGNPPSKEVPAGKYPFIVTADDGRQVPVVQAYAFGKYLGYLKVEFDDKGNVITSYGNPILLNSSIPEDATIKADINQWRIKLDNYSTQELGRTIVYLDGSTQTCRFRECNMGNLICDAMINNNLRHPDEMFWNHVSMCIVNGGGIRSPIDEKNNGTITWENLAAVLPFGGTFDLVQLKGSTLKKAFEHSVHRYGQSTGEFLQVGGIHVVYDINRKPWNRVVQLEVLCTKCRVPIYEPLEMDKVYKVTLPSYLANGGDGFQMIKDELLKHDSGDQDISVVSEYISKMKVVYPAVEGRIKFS

T6: human CD73 mutant 2 (human, UniProt P21589 27-549)
T6 construct: Transfected in HEK-293T cells; The cell prints A1071, read as A107I
T6 chain: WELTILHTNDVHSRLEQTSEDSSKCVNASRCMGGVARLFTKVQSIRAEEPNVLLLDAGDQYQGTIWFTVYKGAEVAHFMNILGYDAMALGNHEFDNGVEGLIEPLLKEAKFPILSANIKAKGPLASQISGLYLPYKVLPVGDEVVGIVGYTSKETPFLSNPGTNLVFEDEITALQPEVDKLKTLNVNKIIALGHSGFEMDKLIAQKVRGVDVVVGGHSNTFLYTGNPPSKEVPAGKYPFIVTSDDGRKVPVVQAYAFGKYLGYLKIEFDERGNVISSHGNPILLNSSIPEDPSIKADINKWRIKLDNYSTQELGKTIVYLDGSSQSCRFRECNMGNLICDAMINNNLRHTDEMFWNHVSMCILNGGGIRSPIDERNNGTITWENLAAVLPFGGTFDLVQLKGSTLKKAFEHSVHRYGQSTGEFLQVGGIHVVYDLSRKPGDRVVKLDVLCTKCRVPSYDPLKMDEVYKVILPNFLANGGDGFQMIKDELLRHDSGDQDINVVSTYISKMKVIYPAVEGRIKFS

T7: recombinant human CD73-His extracellular domain protein, soluble dimer (human, UniProt P21589 27-547)
T7 construct: also called huCD73 protein; human recombinant soluble dimeric CD73
T7 sequence: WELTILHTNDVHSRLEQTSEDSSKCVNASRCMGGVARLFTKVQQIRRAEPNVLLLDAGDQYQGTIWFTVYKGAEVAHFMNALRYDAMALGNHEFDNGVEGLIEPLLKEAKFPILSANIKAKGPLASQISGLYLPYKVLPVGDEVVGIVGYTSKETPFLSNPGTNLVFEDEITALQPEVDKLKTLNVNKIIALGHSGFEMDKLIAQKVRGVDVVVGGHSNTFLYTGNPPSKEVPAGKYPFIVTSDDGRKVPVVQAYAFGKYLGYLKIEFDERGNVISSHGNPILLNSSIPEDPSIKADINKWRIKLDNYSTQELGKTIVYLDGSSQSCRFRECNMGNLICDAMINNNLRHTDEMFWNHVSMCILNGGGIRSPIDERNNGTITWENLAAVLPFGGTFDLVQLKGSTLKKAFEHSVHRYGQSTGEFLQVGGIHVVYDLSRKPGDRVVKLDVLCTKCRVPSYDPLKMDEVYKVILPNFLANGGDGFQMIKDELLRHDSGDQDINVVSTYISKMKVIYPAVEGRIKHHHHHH


Experiments:
[1] = target: T1, human CD73 (ecto-5'-nucleotidase) …; assay: flow cytometry titration on human-CD73-expressing cell line
Experimental: (§1) 10⁵ cells resuspended in PBS/0.2% BSA/0.02% NaN3 (named “staining buffer”) are distributed into round bottom 96W-microplates. Dose-range of anti-CD73 antibodies was added to the plates and cells are incubated for 45 min at 4° C. Cells were washed three times in staining buffer by spinning plates at 400 g for 3 min at 4° C. PE-coupled goat anti-mouse or goat anti-human IgG Fc fragment secondary antibodies (Beckman Coulter) diluted in staining buffer were added to the cells and plates are incubated for 30 additional minutes at 4° C. Cells were washed three times as described above and analyzed on an Accury C6 flow cytometer equipped with an HTFC plate reader.
(§2) Median of fluorescence vs. antibodies concentration was plotted on graphs and EC50 is calculated using GraphPad Prism program.

[2] = target: T1, human CD73 (ecto-5'-nucleotidase) …; assay: flow cytometry titration on MDA-MB-231 cells, endogenous CD73
Experimental: as §1, §2

[3] = target: T2, human CD73 mutant 3; assay: flow cytometry titration on HEK-293T cells transfected with CD73 mutant 3
[4] = target: T3, human CD73 mutant 4; assay: flow cytometry titration on HEK-293T cells transfected with CD73 mutant 4
Experimental: (§3) Anti-CD73 antibodies are tested for their binding to each mutant by flow cytometry. A first experiment is performed to determine antibodies that lose their binding to one or several mutants at one concentration. To confirm a loss of binding, titration of antibodies is done on antibodies for which binding seemed to be affected by the CD73 mutations (1-0.1-0.01-0.001 μg/ml).

[5] = target: T4, human CD73 mutant 5; assay: flow cytometry titration on HEK-293T cells transfected with CD73 mutant 5
[6] = target: T1, human CD73 (ecto-5'-nucleotidase) …; assay: flow cytometry titration on HEK-293T cells transfected with wild type human CD73
Experimental: as §3

[7] = target: T8, cynomolgus CD73 expressed at the cell surface (cynomolgus); assay: flow cytometry titration on cynomolgus-CD73-expressing cell line
T8 construct: whole, on cells; Recombinant cell line expressing cynomolgus CD73; also called cynoCD73
Experimental: as §1, §2

[8] = target: T5, mouse CD73 expressed at the cell surface; assay: flow cytometry titration on a cell line expressing mouse CD73
Experimental: as §1, §2

[9] = target: T6, human CD73 mutant 2; assay: flow cytometry titration on HEK-293T cells transfected with CD73 mutant 2
Experimental: as §3

[10] = target: T7, recombinant human CD73-His …; assay: SPR (Biacore T100, 25 °C), antibody captured on Protein-A, soluble dimeric CD73 injected 1.23 to 300 nM, 1:1 kinetic model, bivalent affinity
Experimental: SPR measurements were performed on a Biacore T100 apparatus (Biacore GE Healthcare) at 25° C. In all Biacore experiments HBS-EP+(Biacore GE Healthcare) and NaOH 10 mM served as running buffer and regeneration buffer respectively. Sensorgrams were analyzed with Biacore T100 Evaluation software. Protein-A was purchase from (GE Healthcare). Human soluble dimeric CD73 proteins were cloned, produced and purified at Innate Pharma.
Protein-A proteins were immobilized covalently to carboxyl groups in the dextran layer on a Sensor Chip CMS. The chip surface was activated with EDC/NHS (N-ethyl-N′-(3-dimethylaminopropyl) carbodiimide hydrochloride and N-hydroxysuccinimide (Biacore GE Healthcare). Protein-A was diluted to 10 μg/ml in coupling buffer (10 mM acetate, pH 5.6) and injected until the appropriate immobilization level was reached (i.e. 2000 RU). Deactivation of the remaining activated groups was performed using 100 mM ethanolamine pH 8 (Biacore GE Healthcare).
Affinity study was carried out according to a standard Capture-Kinetic protocol recommended by the manufacturer (Biacore GE Healthcare kinetic wizard). Serial dilutions of human recombinant soluble dimeric CD73 proteins, ranging from 1.23 to 300 nM were sequentially injected over the captured anti-CD73 antibodies and allowed to dissociate for 10 min before regeneration. […]

Binder	EC50 [1]	fold higher concentration (EC50) than 7H10 [1]	EC50 [2]	EC50 (read off the curve) [3]	EC50 (read off the curve) [4]	EC50 (read off the curve) [5]	EC50 (read off the curve) [6]	EC50 [7]	binding result [8]	EC50 (read off the curve) [9]	Kd [10]
antibody AD2 (Biolegend Corp, product ref. 344004) (antibody, V domains shown) VH: EVQLQQSGAELVKPGASVKLSCTASGFNIKDTYIHWVKQRPEQGLEWIGRIDPATGNTEYDPKFQGKATITADTSSNTAYLHLSSLTSEDTAVYYCARGYYGSSYPPWFAYWGQGTLVTVS VL: DIVMTQSHKFMSTSVGDRVSITCKASQDVGSAVAWYQQKPGQSPKLLIYWASTRHTGVPDRFTGSGSGTDFTLTISNVQSEDLADYFCQQYSSYPLTFGAGTKLELK	0.743 µg/mL	~4 fold	0.431 µg/mL	~0.1 µg/mL	~0.06 µg/mL	~0.07 µg/mL	~0.2 µg/mL	–	–	–	–
antibody 12F9 (antibody, human IgG1, V domains shown) VH: QVQLQQSGPELVKPGASVRISCKASGYTFTNYYIHWVKQRPGQGLEWIGWIYPGNVNTKYNEKFKGKATLTADKSSNTAYMQLSSLTSEDSAVYFCAREGGYDRYALDYWGQGTSVTVSS VL: QIVLTQSPALMSASPGEKVTMTCSASSSVSYMYWYQQKPRSSPKPWIYLTSNLASGVPARFSGSGSGTSYSLTISSMEAEDAATYYCQQWSSNPLTFGAGTKLELK	0.137 µg/mL	–	0.036 µg/mL	–	–	–	~0.2 µg/mL	0.527 µg/mL	no binding (tested: 10 µg/ml)	~0.2 µg/mL	0.938 nM
